Laboratory results from patent US20100029702A1, “Method For Identification of Compound Having Anti-Anxiety Effect” (priority 2006, published 2010).

Target: T1, hk01941 (Homo sapiens, UniProt O60241, DEL308-417)
T1 construct: a vector expressing each full-length cDNA clone was constructed; expressed in transfected cells; host or cells: CHO-K1, hk01941/pcDNA3.1
T1 sequence (O60241 with tags, fused parts or gaps DEL308-417): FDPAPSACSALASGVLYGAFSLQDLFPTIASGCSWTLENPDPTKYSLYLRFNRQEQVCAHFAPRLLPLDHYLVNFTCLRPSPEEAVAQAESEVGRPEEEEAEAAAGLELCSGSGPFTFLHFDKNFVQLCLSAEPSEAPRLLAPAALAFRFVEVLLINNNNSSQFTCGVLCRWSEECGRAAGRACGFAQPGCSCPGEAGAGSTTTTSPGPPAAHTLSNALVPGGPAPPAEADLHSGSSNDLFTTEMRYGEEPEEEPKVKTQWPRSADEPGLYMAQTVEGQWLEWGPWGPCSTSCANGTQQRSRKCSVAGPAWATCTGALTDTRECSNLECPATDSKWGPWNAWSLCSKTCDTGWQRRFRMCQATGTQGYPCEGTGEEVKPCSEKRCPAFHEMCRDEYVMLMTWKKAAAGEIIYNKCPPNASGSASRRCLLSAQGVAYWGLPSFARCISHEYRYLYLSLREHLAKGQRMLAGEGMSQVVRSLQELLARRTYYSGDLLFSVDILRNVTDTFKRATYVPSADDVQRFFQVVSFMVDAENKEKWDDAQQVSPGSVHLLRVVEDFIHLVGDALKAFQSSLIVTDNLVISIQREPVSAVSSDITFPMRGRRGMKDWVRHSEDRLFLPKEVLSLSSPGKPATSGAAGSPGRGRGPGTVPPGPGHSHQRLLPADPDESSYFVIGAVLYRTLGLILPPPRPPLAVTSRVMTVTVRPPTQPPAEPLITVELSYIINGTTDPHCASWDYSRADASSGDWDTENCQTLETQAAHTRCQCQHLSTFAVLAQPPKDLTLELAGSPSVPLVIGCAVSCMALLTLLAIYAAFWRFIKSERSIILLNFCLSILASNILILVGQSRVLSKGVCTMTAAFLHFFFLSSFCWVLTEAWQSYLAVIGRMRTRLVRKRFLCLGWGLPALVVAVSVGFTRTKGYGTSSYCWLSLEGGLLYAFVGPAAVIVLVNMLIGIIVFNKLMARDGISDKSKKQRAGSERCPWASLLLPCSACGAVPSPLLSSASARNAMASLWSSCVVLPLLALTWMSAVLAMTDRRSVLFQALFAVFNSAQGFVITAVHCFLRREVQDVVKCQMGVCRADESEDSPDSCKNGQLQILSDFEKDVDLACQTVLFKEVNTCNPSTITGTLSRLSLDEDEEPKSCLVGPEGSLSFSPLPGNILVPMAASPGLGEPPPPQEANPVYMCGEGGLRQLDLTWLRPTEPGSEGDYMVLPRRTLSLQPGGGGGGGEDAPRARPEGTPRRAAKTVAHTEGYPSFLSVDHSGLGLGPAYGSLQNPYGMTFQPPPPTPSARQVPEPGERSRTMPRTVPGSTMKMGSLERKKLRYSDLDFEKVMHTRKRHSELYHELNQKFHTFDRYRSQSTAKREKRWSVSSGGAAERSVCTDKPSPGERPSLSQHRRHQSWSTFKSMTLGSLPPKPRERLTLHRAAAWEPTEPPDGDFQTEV
Experiment: Changes in intracellular Ca2+ concentration in hk01941 stably-expressing strain
Type: cell-based
Method: The 7tmHR stably-expressing strain and the hk01941 stably-expressing strain were prepared by transfecting the 7tmHR-expressing vector (7tmHR/pcDNA3.1) and the hk01941-expressing vector (hk01941/pcDNA3.1), respectively, into a CHO-K1 cell strain. Specifically, the expression vector was mixed with Lipofectamine 2000, (may be referred to as LF2000, Invitrogen) (4 μg DNA/250 μL of DMEM/F12 medium+10 μL of LF2000/250 μL DMEM/F12 medium) and added the CHO-K1 strain (2 mL medium/well) cultured in a 6-well plate to be transfected thereinto. On the following day, cells were recovered and seeded in a 96-well plate at cell density of 1 cell/well, cultured in a selective medium containing G418 (400 μg/mL) (DMEM/F 12 medium containing 10% FCS), and screened for expression cell strains. […]
Changes in the intracellular calcium (Ca^2+) concentration induced by CCK-8S were measured by a method similar to the method described in Example 5 using the 7tmHR stably-expressing strain and the hk01941 stably-expressing strain prepared in Example 7. […]
Cells were seeded in a 96-well plate (a plate with a black wall and a transparent bottom) at a cell count of 3×10^4/100 μL of medium/well and cultured overnight at 37° C. in a 5% CO2 incubator. […] After reaction, changes over time in the fluorescence intensity in each well after addition of CCK-8S were measured using the FLEX station (Molecular Device). […]

Compound | Change in intracellular Ca2+ concentration after addition of CCK-8S (hk01941 stably-expressing strain, CCK-8S 10 pM to 1 μM, figure at 1 nM) | Change in intracellular Ca2+ concentration (fluorescence intensity) (hk01941/CHO#13, A23187 20 μM, positive control)
cholecystokinin octapeptide sulfated form [CCK-8S] | increase | 
CNc1ccc2oc(C[C@H]3O[C@@]4(CC[C@H]3C)O[C@H]([C@H](C)C(=O)c3ccc[nH]3)[C@H](C)C[C@H]4C)nc2c1C(=O)O [A23187] |  | increased
